Results reported in the supplement of paper PMC7125110.
± gives the standard error. For some of these results: Fewer inactive variants are shown than the library holds.

B1: glmS ribozyme (parent)
chain: AUAAAAGCGCCAGAACUACAGAAAUGUAGUUGACGAGGAGGAGGUUUAUCGAAUUUUCGGCGGAUGCCUCCAAA

Key:
Conditions in all cases: with glucosamine-6-phosphate
glucosamine-6-phosphate [1] = variants of: B1; test: kcat; higher = faster cleavage; RNA array
How it was run: (§1)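 Weighted Michaelis–Menten fits across concentrations supplied kcat and KM, based on kobs from one- or two-exponential decay fits to normalised per-tile medians. The data came from barcoded ribozyme variants transcribed in situ by E. coli RNA polymerase on sequenced MiSeq chips and tracked at 37 °C by a hybridised Cy3 probe. Glucosamine-6-phosphate (40 μM to 10 mM) in HEPES/KCl/Mg(OAc)2 buffer was flowed in.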

glucosamine-6-phosphate [2] = variants of: B1; test: self-cleavage kobs at 160 uM GlcN6P; higher = faster cleavage; RNA array
How it was run: as §1

glucosamine-6-phosphate [3] = variants of: B1; test: self-cleavage kobs at 640 uM GlcN6P; higher = faster cleavage; RNA array
How it was run: as §1

glucosamine-6-phosphate [4] = variants of: B1; test: self-cleavage kobs at 10000 uM GlcN6P; higher = faster cleavage; RNA array
How it was run: as §1

glucosamine-6-phosphate [5] = variants of: B1; test: KM; higher = weaker cofactor use; RNA array
How it was run: as §1

glucosamine-6-phosphate [6] = variants of: B1; test: self-cleavage kobs at 40 uM GlcN6P; higher = faster cleavage; RNA array
How it was run: as §1

glucosamine-6-phosphate [7] = variants of: B1; test: self-cleavage kobs at 2500 uM GlcN6P; higher = faster cleavage; RNA array
How it was run: as §1

| Variant | kcat (glucosamine-6-phosphate [1]) | self-cleavage kobs at 160 uM GlcN6P (glucosamine-6-phosphate [2]) | self-cleavage kobs at 640 uM GlcN6P (glucosamine-6-phosphate [3]) | self-cleavage kobs at 10000 uM GlcN6P (glucosamine-6-phosphate [4]) | KM (glucosamine-6-phosphate [5]) | self-cleavage kobs at 40 uM GlcN6P (glucosamine-6-phosphate [6]) | self-cleavage kobs at 2500 uM GlcN6P (glucosamine-6-phosphate [7]) |
| --- | --- | --- | --- | --- | --- | --- | --- |
| C61U G62A | < 1e-05 s⁻¹ | < 1e-05 s⁻¹ | < 1e-05 s⁻¹ | < 1e-05 s⁻¹ |  |  |  |
| C11U | 0.00338 ± 0.00074 s⁻¹ | 0.000216 ± 7.8e-06 s⁻¹ | 0.000837 ± 8.1e-05 s⁻¹ | 0.00293 ± 9.8e-05 s⁻¹ | 1800 ± 450 µM | 8.01e-05 ± 1.4e-06 s⁻¹ | 0.00508 ± 0.0016 s⁻¹ |
| U57A G66A | 0.000171 ± 2.8e-05 s⁻¹ |  |  | 0.00012 ± 3.2e-05 s⁻¹ | 4040 ± 1400 µM |  | 6.97e-05 ± 2.3e-05 s⁻¹ |
| C16A G66A | 0.00167 ± 9.1e-05 s⁻¹ | 6.8e-05 ± 3.1e-05 s⁻¹ | 0.000223 ± 5e-05 s⁻¹ | 0.00118 ± 0.00018 s⁻¹ | 4130 ± 370 µM |  | 0.000633 ± 0.00013 s⁻¹ |
| A6C U65A | 1.38e-05 ± 2.5e-07 s⁻¹ |  |  |  | 3180 ± 190 µM |  |  |
| U45G U65G | 0.00365 ± 0.0011 s⁻¹ |  | 0.000639 ± 0.00024 s⁻¹ | 0.00282 ± 0.00077 s⁻¹ | 2200 ± 1000 µM | 7.22e-05 ± 2.1e-05 s⁻¹ | 0.00296 ± 0.00091 s⁻¹ |
| C11U C58G | 3.35e-05 ± 2.6e-07 s⁻¹ |  |  | 3.28e-05 ± 7.7e-06 s⁻¹ | 188 ± 18 µM |  | 3.13e-05 ± 1e-05 s⁻¹ |
| G13A C16G | 0.000217 ± 1.4e-05 s⁻¹ |  | 5.02e-05 ± 1.2e-05 s⁻¹ | 0.000178 ± 2.5e-05 s⁻¹ | 1970 ± 290 µM |  | 0.000131 ± 2.4e-05 s⁻¹ |
| U56G C58U | 0.000147 ± 7.7e-06 s⁻¹ |  |  | 9.06e-05 ± 8e-06 s⁻¹ | 6310 ± 710 µM |  | 4.08e-05 ± 8.6e-06 s⁻¹ |
| A53C C58G | 1.56e-05 ± 5.2e-06 s⁻¹ |  |  |  |  |  |  |
| A53C C58U | 3.83e-05 ± 9.3e-06 s⁻¹ | < 1e-05 s⁻¹ |  |  |  | < 1e-05 s⁻¹ |  |
| A15G A33U | 0.0001 ± 9.2e-06 s⁻¹ |  |  | 7.91e-05 ± 6.4e-06 s⁻¹ | 2530 ± 740 µM | < 1e-05 s⁻¹ | 5.25e-05 ± 7e-06 s⁻¹ |
| A15U U45C | 0.000662 ± 6.5e-05 s⁻¹ |  | 6.91e-05 ± 1.5e-05 s⁻¹ | 0.000419 ± 4.9e-05 s⁻¹ | 5870 ± 1000 µM |  | 0.000187 ± 4.3e-05 s⁻¹ |
| G13U A52G | 7e-05 ± 5.1e-06 s⁻¹ |  |  | 6.34e-05 ± 7e-06 s⁻¹ | 817 ± 370 µM | < 1e-05 s⁻¹ | 6.21e-05 ± 1.3e-05 s⁻¹ |
| G38U U65A | < 1e-05 s⁻¹ | < 1e-05 s⁻¹ |  |  |  |  |  |
| A39C U46A | 0.000341 ± 6.3e-05 s⁻¹ |  | 5.57e-05 ± 1e-05 s⁻¹ | 0.000249 ± 3.6e-05 s⁻¹ | 2880 ± 980 µM |  | 0.000209 ± 3.4e-05 s⁻¹ |
| A52G U69C | 0.000343 ± 3.8e-05 s⁻¹ |  | 0.000215 ± 4.5e-05 s⁻¹ | 0.000381 ± 0.00011 s⁻¹ | 425 ± 160 µM |  | 0.000269 ± 5.7e-05 s⁻¹ |
